According to the DeepSol protein solubility set:

test: soluble on expression in E. coli; label from the status in PepcDB or PDB records

Sequence	soluble on expression in E. coli
MGSDKIHHHHHHMSHGAIKHHRHRGRVMYHLRVPESAEDLDAYYQFRWEMLRKPLHQPLGSERDAYDALAHHQTVVDEQGRLVAIGRLSINADNEAAIRFLAVHPDLRGKGLGTLLAITLESVARQEGVKRVVCSAREDAMDFFSKLGFVNQGEISAPQTTPVRHFLMIKPVATLDDILHRADWCGQLQQAWYDHIPLSEKMGVRISQYTGKKFITTMPEAGNQNPHHTLFAGSMFSLATLTGWGLIWLLLRERHLGGTIILADAHIRYSTPVSGRPSAIADLGSLSGDLDRLARGRKARVQLNVELFGDDNKGALFEGVYIVLPAQPDAPLEEGGSEVD	not soluble
MEQNLKNIKISIIIPTLNEVGNIQQTIATTQPSVNIEVIVVDGGSQDDTVAIAQSLGVKVISSSPGRAVQMNTGAALAAGEILLFLHADTRLPVGFDEMIRAALQQPGVVAGAFALRIDADLAGLRWVEKGVYWRSHFFQMPYGDQAIFMTKAVFEKVGGFSELPIMEDFELMRRLKHIGKITVLGVAVITSGRRWLQRGVFQTTLINQVVIIAYLLGVAPAQLHSWYRQGKFFRIGGRLLEHHHHHH	soluble
MMQPLYLVGPRGCGKTTIGMALAQATGFRFADTDRWLQSHVQMSVADIVEKEGWGGFRARETAALEAVSAPSTVVATGGGIILTEYNRRYMHRVGVVIYLCAPVSTLVNRLEAEPEADLRPTLTGKPLSEEVREVLEQRDALYRETAHYIIDATKAPAQVVSEIIAALPPSTQRLQGDVYT	not soluble
MPLVSLIIRCYNEEKHIGRLLSGVMQQQGIDYEIIIVDSGSTDATVSIAQRYPIQLISIDPQNFSFGRSLNLGCQQASGEYLVFASAHVYPVYQDWLKQLIAPLQTNPQIALSYGKQRGNNQTQFSEHQIFAQWFPDQAQIPQTTPFCNNANAAIRRDLWQKYPYNEDLTGLEDLDWAKRLMQAGYQIAYVPDAEIIHVHQETPQRVRNRYRREAIALKQIFPEQTFSLGDFVRLTVSNTLSDYYYAWQSQQLMTQLWAIPQFRLMQFWGTYQGYHQNNSLNQQLRQTFYYPRPINTITPNVPSKDALKINYAQSDTQLVPDPSPPSPHQLEHHHHHH	soluble
MGHHHHHHSHMATSRYEPVAEIGVGAYGTVYKARDPHSGHFVALKSVRVPNGGGGGGGLPISTVREVALLRRLEAFEHPNVVRLMDVCATSRTDREIKVTLVFEHVDQDLRTYLDKAPPPGLPAETIKDLMRQFLRGLDFLHANCIVHRDLKPENILVTSGGTVKLADFGLARIYSYQMALTPVVVTLWYRAPEVLLQSTYATPVDMWSVGCIFAEMFRRKPLFCGNSEADQLGKIFDLIGLPPEDDWPRDVSLPRGAFPPRGPRPVQSVVPEMEESGAQLLLEMLTFNPHKRISAFRALQHSYLHKDEGNPE	not soluble
MALAEADDGAVVFGEEQEALVLKSWAVMKKDAANLGLRFFLKVFEIAPSAKQMFSFLRDSDVPLEKNPKLKTHAMSVFVMTCEAAAQLRKAGKVTVRETTLKRLGATHLRYGVADGHFEVTGFALLETIKEALPADMWSLEMKKAWAEAYSQLVAAIKREMKPDA	soluble
MAHHHHHHMSWRVSCKTALLDELFTYIAGKTDANTLQKECVLALPQLETLAKMLGFSLDDMSMYRLAWSWSCEAPLCIRKSEFVNGMNAICSGVKLSATATSSTCSASPVKSPKKEFEPILLALRNHVETLDGALRGDVTKFRHFYRFIYKWVQSPLTMERNMGQVGMSIETAVELWRMLFPHYREFKRLDDWITFCMSKKLFPHGIISRDLWEQLLEFTFVTDYSKYDVSDAWPSAMDDFVEYVKSKV	not soluble
MGSDKIHHHHHHMRISLSTGTLFTFPLGKVMRIAREAGFDGVELIINQDFQKVNCRKLIEELAEILPINSIHAPFMPLDGWGGPIDSLERCVELAAGAGIPLVNFHPPSWMGFEIGFWRWLYRVMDFQKEVGRETVIVTLENMPWVGTRFRVNPHILSNTEKLIEFIQERNLYMTFDTTHMGSGKANFINDFYHCYNSGRIRNIHFSDYGHGREHLIPGHGILPLTRFLNHLRSTDYADTLTLELSPEEFPRDERIIVESLREILQYLRRETSPA	not soluble
MKFTVGIAMNPLDQLPALARTAEECGFSSIALPDSLFFMEKQSADYPYTPDGSRMWNEETPWVDPLIAAAAMGAVTSKIEFYTQVLKLGSRNPVLLARQVGSVANLIGNRFGFGVGIGWAPEEFEWCGVPYKKRGARVDEMIDVIKLILGGGMVEYHGEFFDFDRLQMSPAPTKPVPFYVGGHTDVALRRAARVGDGWTSAMIKFDDLVQVIARLRELREEYGRADLPYEIQTVCIDRFGKDGYAELADAGVTDTIVVPWVFDGIGFDGPLEAKQDSLRKFADQYIG	not soluble
MHQQIIKFWFEELTPQNWFENNPELDKHIASRFASVLEQAARCELFNWRDSAQGRLAEIIVLDQFSRNVYRNTPKAFAQDPLALALAQEAIRLGHDQELAPEQLSFLYMPFMHSESRLIHVEAEKLFRASGLENNYDFELKHKAIIDQFGRYPHRNAILGRESTPEELAFLQQPGS	soluble
MNKRVQAFLAKMQEKELDGIIINNLKNVYYLTGFWGSNGTVFISRDRQVLVTDSRYIIAAKQETSGFEIVADRDELAVIAGIVKDMGLTRIGFEDEISVSYYHRMQAAFAGLNLLPQTQFVEGLRMIK	not soluble
MTVSEIRVRKINPRAKIPKRQSEGAAGYDIHSVESGRIPPNGRKSVRTGLAWDVPQSVVGLVFGRSGLALRNWIEVVETCVHPGEDKELVITLVNNGREVFEYEESSRIAQLVFVPVLSCEIDLVESLDLTERGCLGFGSTGMK	not soluble
MEGSVSEFLTVRLSSQKEADIPWLVWSAEQQEVIASGQVAGWEALHEIESYADQRSVVVLLAASDLILTSVEIPPGASRQLENMLPYLLEDEIAQDVEDVHFCVLSKGRETADVVGVDRLWLRACLDHLKACGFDVKRVLPDVLAIPRPEHGLAALQLGDEWLVRKSTTQGMAVDAQWLSLLAASDWVQNEGEYLPLQALTPLPELSLAETQEWRYEPSGLVMQLLTQEALTSKFNLLTGSFKLKSLEHHHHHH	soluble
MYSANPTLGYYVPPLDVNNLTDQQTAISIEHLSLYYQQSRALSDISMRIPKGQVTAFIGPSGCGKSTLLRCINRMNDLVEGTRVEGEVKLHGKNIYHPDVDVPTLRRRVGMVFQRPNPFPKSIYENVVYGLRLQGIKNSRALDDAAEQSLRAAALWDEVKHRLHENAFGLSGGQQQRLVIARAIAIEPEVLLLDEPTSALDPISTLTIEELIHDLKTKYTVVIVTHNMQQAARVSDHTAFIHMGKLIEYADTDSIFTSPLKKQTEDYITGRYG	not soluble
MGSDKIHHHHHHMKVKYIAAILLSTQLVYTACDDMGFLQIKPDSLELTDDRIKTVDDLENLLLGAYNGIRSSGFWGGRTLRGFDVIADDGVADVATFEWVQMSAHTMNLVNAVGRDTWTATYNAINMANQVAFSDLGESILASDPQKEAQFKAEASFIRALGYFHLVRAFGLPYAEETKDIAEMGVPLRLRGVMDRATAFEVVQRSTVSEVYSQIISDLEYAIGNLPGENKVESGRATVDGAKALLAKVYFYKHDFGNAAKYAEQVINTQKYDLDEDLTAKFGRAEKKTVTQEIVAMIPSASLIEDSWGGLRDYRTNGLALPTSRPSNELIAAYDQQNDNRFKTFFKNIDGSWYTLKFDYEYMDGIIIGYNELLLLYAESLAESNGNMNQALNALQKIEKRAYGKANTTTTDRASFIKAVQKERRLEIALQGERLFELKRIKQSVRGEAWDSHKVMFQIPDVEQNGNPDVNMN	not soluble
MSEASRDDYKIQSFDAQTQQLLKTALKDPGAVDLERVANVIVDHSLQDCVFSKEAGRMCYAIIQAESKQAGQSVFRRGLLNRLQKEYDAREQLRACSLQGWVCYVTFICNIFDYLRVNNMPMMALVNPVYDCLFQLAQPESLSREEEVDCLVLQLHRVGEQLEKMNGQRMDELFILIRDGFLLPTDLSSLARLLLLEMIEFRAAGWKTTPAAHKYYYSEVSD	not soluble
AHHHHHHGSFFLKTKIIEGRGSLEYLQKEAIGFERALILASSSMKRLGFLKEAEDYLREGGVEVISIAGLPPEPTKDVVDEFLPKVREFSPEILIAIGGGSVIDMAKALKVFYDVPGISFEEVAIKSRFSKPRPVPKLKTPLIAIPSTSGAGSEVSAASVIKVGDVKYTIVTPEIAPEVAILDPRLPEGMPPEVARNSGMDVLVHAIEAYVSKASSPFTDAMAVKAAKAVLEHLEESIRGDKNAREKIHYAATMAGIAFLNARLGLVHAMSHKAAWIGPHGLVNAILLPYVMEYNMARRREKYDALARELGFDNAEELLEEIKALNERLGIGPISSYVSEEEFLAKLDEMVERAYEDPLVNFNPVEPRKEDIRRIYERAFYGD	soluble
LPEIPIAAPDLLGHGRSPWAAPWTIDANVSALAALLDNQGDGPVVVVGHSFGGAVAMHLAAARPDQVAALVLLDPAVALDGSRVREVVDAMLASPDYLDPAEARAEKATGAWADVDPPVLDAELDEHLVALPNGRYGWRISLPAMVCYWSELARDIVLPPVGTATTLVRAVRASPAYVSDQLLAALDKRLGADFELLDFDCGHMVPQAKPTEVAAVIRSRLGPR	soluble
MGSDKIHHHHHHMFDRSRKGEHALLIQTHSGGPAEEDVLEEFAELAKSAGATVAATLTARIDKPSPSTLIGSGKLEEVKAAAEATGADLVLVNHTLSPGQERNLERYLERRVIDRTGLILDIFAQRARSHEGKLQVELAQLRHMATRLVRGWTHLERQRGGAIGLRGPGETQLETDRRLLQKRVEQLQKRLEKVEVQRTQMRRARMRSELPRIALVGYTNAGKSTLFNALTGADAYAADQLFATLDPTVRRIALPGGSAVLADTVGFVRDLPHELVAAFRSTLSEARDADLLLHIVDAADPLREERIHQVDEVLQAVGAGDLPQLLVFNKIDKIEGAEVRHDAQDGIPDQARRERVWISARDGRGLEELQRALGHRLDLRHITGSLRLPASAGRLRSKLHQLEVIRSEQVDEEGWLLEVDLPYVEAERLAAGEDGAPLRALLPDRREDWET	not soluble
ETMVGSFRDTTDKWLSQRLAADIYIYPTNNSAGRMSAWLQDQPEVESVWWRWEKDVPTEHGALQVVSTGPSEGELDSLTVKLGVPNYWYQLHQTKSLMVSESMALKLDIRPGDYIDLQAPLGEGWQVVGVYYDYGNPYNQVMMSHRN	not soluble
MTIQHQFAENLSRLKKEHGLKNHQIAELLNVQTRTVAYYMSGETKPDIEKLIRLATYFHLSIDELVGYVQEDKVWNDLSLKQWLLSLNLRSEEEIAKIKILVDTVETLYPN	not soluble
MIKFYQYKNCTTCKKAAKFLDEYGVSYEPIDIVQHTPTINEFKTIIANTGVEINKLFNTHGAKYRELDLKNKLQTLSDDEKLELLSSDGMLVKRPLAVMGDKITLGFKEDQYKETWLA	not soluble
MRSATDLLDELNAVDESARIEAKRASDMGKSVMETVIAFANEPGLDGGYLLLGVDWAINDKGDTVYRPVGLPDPDKVQRDLASQCASMLNVALRPEMQLEQVGGKTLLVVYVPEADVTHKPIYKKATGLPGGAYRRIGSSDQRCVDEDLWVLRGESQPLHGPDSSILSDARADDFDPTAIAAYRRERARINPQAEELDYGDEDMLEALGALRRVDGVLQPTLAGIVLFGKPLALRRLLPMVRIDYIRVPGNEWVEDPENRFQSIDIRKPLMLALPLAEASIIDELPKGFRLPEGQLQSVQEPILPRKVIREALANAAMHRNYTLHSPTQIIRYSNRIEIRNVGYSLKEPAQLGLPGSRLRNPAIAAVLHDLHLAEAKGTGIRAMRRLAADAGLPLPEFHSDRQANEFKLTLFLHNLLTEEDHTWLRNYAGSTLGPDEAKVLIYVRATGAVDNTACRDFCGSDTLAASMVLRRLRDRGLLEKRGAGSRTYYTLAGNEPRPTLESAQSELPLDVPADTPPVGQPQPAEAVAGQQACNPQLATLPPELATLLATLQGRISSEALRDGIRRLCQWAPQSGDQLATLLGKDRDYLRNKHLIPMVRDGQLRFRYPESAKHPHQAYVAPEDKRNDLEHHHHHH	soluble
